Consider one substance from publication PMC12295887.

Assay [1] deals with actin purified from rabbit skeletal muscle (m. longissimus dorsi) (rabbit) (UniProt P68135).
Assay [2] shares this target. The source holds these as a separate data set.
Assay [3] has the same target. This is another data set of the same source.

In turn, “PEVKII, the middle one-third segment of the human skeletal muscle titin PEVK domain (domain or fragment)” registered a pyrene-actin fluorescence excitation and emission intensity after 800 s of polymerization, 4 µM actin (10% pyrene-labeled) with 5.5 nM PEVKII, against actin alone in assay [1] of 16%. The initial rate of actin polymerization (pyrene assay, 4 µM actin), PEVKII 3.25-32.5 nM, against actin alone in assay [2] was over 30 fold. In assay [3], the peak pyrene fluorescence intensity (total amount of F-actin), 4 µM actin, PEVKII 3.25-32.5 nM, against actin alone was 22% and the time to reach the peak pyrene fluorescence intensity, 4 µM actin, PEVKII 3.25-32.5 nM, against actin alone is over 3 times faster.
